Measurements from the supplement of paper PMC9732359.
± gives the uncertainty stated by the source.

Assay: protein stability index of a GFP-peptide fusion (yeast GPS) (PSI 1-4); higher = more stable; sorted into four equal gates, so the index is relative within each strain
Outline: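 Tiled yeast protein peptides of 17 residues were each joined downstream of GFP, on plasmids that also express Cherry. The pooled library was maintained in yeast, and mid-log cultures in leucine-free medium were sorted into four equal gates on the GFP/Cherry ratio. Plasmids from every gate were amplified by PCR and sequenced on Illumina, with barcodes linking reads to strains. The protein stability index of a peptide is its gate-number-weighted read frequency summed over the gates.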

Sequence | protein stability index (doa10∆) | protein stability index (pdr5∆) | protein stability index (san1∆) | protein stability index (ubr1∆)
GFETSKNIKIIMATNRL [RPT6] | 2.87 ± 0.15 | 2.54 ± 0.084 | 2.36 ± 0.066 | 3.28 ± 0.063
GFFENIETEFLLFTVKL [IRR1] | 3.12 ± 0.077 | 3.2 ± 0.11 | 3.24 ± 0.049 | 3.12 ± 0.07
GFKTPKTAIEGSYIDKK [RPS11A] | 2.98 ± 0.043 | 3.21 ± 0.052 | 3.12 ± 0.032 | 3.201 ± 0.031
GFNMKKITTSTEDQKVT [SRP68] | 2.84 ± 0.065 | 2.67 ± 0.051 | 2.83 ± 0.074 | 2.42 ± 0.04
GFNSIWKIPQNDIPQTE [SSN2] | 3.09 ± 0.19 | 3.28 ± 0.28 | 3.18 ± 0.15 | 3.25 ± 0.076
GGGAARRQAVDVSPLRR [RPS5] | 2.28 ± 0.1 | 1.76 ± 0.056 | 2.15 ± 0.11 | 1.85 ± 0.093
GGGRVDKPLLKAGRAFH [RPL2A] | 3.12 ± 0.048 | 3.11 ± 0.043 | 2.95 ± 0.049 | 2.99 ± 0.03
GGHSLEEISFSLSEGCD [PRP28] | 2.17 ± 0.11 | 2.42 ± 0.067 | 1.93 ± 0.13 | 2.25 ± 0.094
GGPWFTDGELDIEFINS [RPC34] | 3.14 ± 0.15 | 3.42 ± 0.12 | 2.55 ± 0.21 | 3.17 ± 0.081
GGRYVYPVHEAHKGQIV [SNU114] | 1.58 ± 0.12 | 2.97 ± 0.11 | 3.01 ± 0.054 | 2.89 ± 0.063
GGSFGNREEFINKLVKA [RPL7B] | 3.01 ± 0.22 | – | – | 2.93 ± 0.078
GGSGNGDDVVNDVQGID [RPP1] | 3.54 ± 0.25 | 3.55 ± 0.25 | 3.27 ± 0.079 | 3.1 ± 0.1
GGSRGGGSNYMSNLPFG [RPC31] | 2.94 ± 0.27 | 3.21 ± 0.18 | – | 3.14 ± 0.17
GHIGAYLIVAGVDPTGS [PUP1] | 1.48 ± 0.1 | 1.83 ± 0.093 | 1.68 ± 0.16 | 1.65 ± 0.11
GHVGSVQISNIPDIGDL [PRP8] | 3.11 ± 0.067 | 2.95 ± 0.053 | 2.79 ± 0.058 | 3.03 ± 0.046
GIAIGLNKGKKVTSMTP [RPL36A] | 3.08 ± 0.18 | 3.13 ± 0.12 | – | 3.15 ± 0.1
GIDPQDLKKLNLNVYIQ [CDC53] | 1.68 ± 0.14 | 1.7 ± 0.12 | 1.42 ± 0.1 | 1.19 ± 0.083
GILRRKSESDELQMRSF [RRP4] | 3.06 ± 0.11 | 3.04 ± 0.17 | 3.18 ± 0.11 | 3.16 ± 0.084
GINPNTFRIFHNHDTGC [YDL088C/ASM4] | 1.83 ± 0.073 | 1.85 ± 0.082 | 1.4 ± 0.15 | 1.44 ± 0.047
GIRIKGKIVGFDEFMNV [SME1] | 3.15 ± 0.068 | 2.96 ± 0.098 | 3.23 ± 0.076 | 3.12 ± 0.099
GISKKTRIAGVVYHPSN [RPS8A] | 2.53 ± 0.03 | 2.456 ± 0.024 | 2.41 ± 0.032 | 2.403 ± 0.021
GKEFEARNLIEDEDDGE [RPC53] | 3.46 ± 0.16 | 3.58 ± 0.14 | 3.41 ± 0.1 | 2.94 ± 0.14
GKIPTLKISLIQIFRAH [PRP8] | 1.72 ± 0.045 | 1.44 ± 0.044 | 1.33 ± 0.073 | 1.29 ± 0.041
GKLVVSQEMVPRYFSEA [SIR3] | 3.31 ± 0.086 | 3.43 ± 0.17 | 3.38 ± 0.079 | 3.21 ± 0.12
GKVTDVRSTIKFQLKKV [RPL1A] | 3.77 ± 0.21 | – | 3.01 ± 0.25 | 3.46 ± 0.13
GKVVGDKWESYLNLLQE [RPB10] | 3.24 ± 0.076 | 2.65 ± 0.086 | 2.49 ± 0.11 | 3.26 ± 0.055
GLFGNKPALGSLGSSST [YGR119C/NUP57] | 3.34 ± 0.089 | 2.63 ± 0.084 | 2.77 ± 0.048 | 3.21 ± 0.18

Sequence | protein stability index (doa10∆) | protein stability index (pdr5∆) | protein stability index (san1∆) | protein stability index (ubr1∆)
GLFGNKPNNTANTGGGL [YGL172W/NUP49] | 3.66 ± 0.17 | 3.65 ± 0.13 | 3.49 ± 0.062 | 3.56 ± 0.11
GLGETSGDNHTQQSHEQ [RPT4] | 3.32 ± 0.14 | 3.19 ± 0.21 | – | 3.23 ± 0.22
GLLDLERVIVVTGFAEV [FAS2] | 2.9 ± 0.17 | 2.32 ± 0.095 | 2.21 ± 0.17 | 2.16 ± 0.11
GLLSQAIGCIERSDLLP [YJR042W/NUP85] | 2.37 ± 0.07 | 2.37 ± 0.064 | 2.43 ± 0.09 | 2.51 ± 0.069
GLRTENVLDYFAESPFF [MED6] | 3.35 ± 0.12 | 3.25 ± 0.18 | 2.94 ± 0.077 | 2.83 ± 0.047
GLSKEDDVRDFVIRREV [RPS6A] | 3.42 ± 0.094 | 3.42 ± 0.081 | 3.13 ± 0.13 | 3.68 ± 0.15
GLTNWAAAYATGLLIAR [RPL5] | 1.39 ± 0.18 | 1.26 ± 0.084 | 1.14 ± 0.13 | 1.1 ± 0.027
GLVDENKVEAFKSLYTF [YAR002W/NUP60] | 3.01 ± 0.089 | 2.65 ± 0.08 | 3.39 ± 0.054 | 2.83 ± 0.043
GLWGFSTATRNVTMIDD [COR1] | 3.18 ± 0.083 | 3.1 ± 0.08 | 3.02 ± 0.064 | 2.85 ± 0.066
GMPNMPGMPNMPGMPNM [SRP54] | 3.37 ± 0.088 | 3.21 ± 0.064 | 3.13 ± 0.061 | 3.14 ± 0.051
GMRVGVDRSKYNIELPL [RPT1] | – | – | 3.52 ± 0.16 | –
GMVKLNEYPVADAVTKD [REC8] | – | 2.87 ± 0.2 | 3.28 ± 0.043 | 3.36 ± 0.052
GNAPATPSSDQNPLPTR [SOH1] | 3.44 ± 0.13 | 2.98 ± 0.065 | 2.63 ± 0.077 | 3.17 ± 0.067
GNENFEDFDVEHFSDEE [RPO26] | 3.05 ± 0.088 | 3.1 ± 0.088 | 2.95 ± 0.085 | 3.17 ± 0.082
GNGLVDENKVEAFKSLY [YAR002W/NUP60] | 3.35 ± 0.1 | 3.14 ± 0.12 | 3.53 ± 0.056 | 3.3 ± 0.053
GNIFADLLPNSFAKLVP [SMC2] | 2.36 ± 0.045 | 2.86 ± 0.04 | 2.58 ± 0.05 | 2.62 ± 0.043
GNKLVELMRIISRNGDT [SMC1] | – | – | – | 3.28 ± 0.25
GNMCRGGRMFAPTKTWR [RPL4A] | 2.92 ± 0.078 | 2.61 ± 0.12 | 3.04 ± 0.063 | 2.34 ± 0.053
GNNPSWVNNPKKRFTPH [YDL088C/ASM4] | 3.42 ± 0.23 | – | – | –
GNRNSSSVFLPSRKDCM [BRR2] | 3.18 ± 0.086 | 3.16 ± 0.071 | 3.2 ± 0.057 | 3.22 ± 0.074
GNSFNKSSNDTIEHAAD [YCG1] | 2.14 ± 0.058 | 2.67 ± 0.048 | 2.37 ± 0.047 | 2.64 ± 0.057
GPEITPEEATTIFSVMV [PRP8] | 2.09 ± 0.13 | 2.37 ± 0.14 | 1.77 ± 0.22 | 2.6 ± 0.13
GPGFKFVDLNEKELQNE [SRB4] | 2.64 ± 0.17 | – | – | 2.85 ± 0.14
GPSIYKTDPAGYYVGYK [SCL1] | 3.17 ± 0.092 | 3.4 ± 0.08 | 3.33 ± 0.059 | 3.38 ± 0.091
GPVGKECADLWPRVASN [RPL23A] | 3.2 ± 0.13 | 3.3 ± 0.11 | 3.17 ± 0.1 | 3.23 ± 0.057
GQEYPRIIGLSATLPNY [BRR2] | 1.9 ± 0.047 | 2.2 ± 0.044 | 1.96 ± 0.057 | 1.81 ± 0.046
